For the test, the target named is GST-CypA (human cyclophilin A fused to GST), P62937-1. Description: His6-HIVCA pull-down assay, SDS/PAGE band densitometry. As to conditions: n = 3, parent: est. 0.45, read off a plot.

For “wild-type HIV-1 capsid protein with an N-terminal 6-his tag (His6-HIVCA) (from UniProt P04591) A77P”, for the setting “*P < 0.05”, the other: CypA/CA ratio stood at 0.063. Regarding “wild-type HIV-1 capsid protein with an N-terminal 6-his tag (His6-HIVCA) (from UniProt P04591) L189I”, the other: CypA/CA ratio came to 0.36.

Take “wild-type HIV-1 capsid protein with an N-terminal 6-his tag (His6-HIVCA) (from UniProt P04591) W23A”: the other: CypA/CA ratio stood at 0.26. The same measure, in the same setting: then “wild-type HIV-1 capsid protein with an N-terminal 6-his tag (His6-HIVCA) (from UniProt P04591) L189P”, with 0.43.

Regarding “wild-type HIV-1 capsid protein with an N-terminal 6-his tag (His6-HIVCA) (from UniProt P04591) A78V”, the other: CypA/CA ratio was 0.43.

As to “wild-type HIV-1 capsid protein with an N-terminal 6-his tag (His6-HIVCA) (from UniProt P04591) L189F”, the other: CypA/CA ratio amounted to 0.53.

The values above are taken from paper PMC4971840.
